Results taken from publication PMC4125734 (Molecular & Cellular Proteomics : MCP, 2014).
Several values for one entry are separate records, joined by “and”; a condition that tells them apart may be missing. Equal entries are not always repeated. Where two headings read alike, the source gives them in different places. Values belong to the molecule of their own block, whether it stands above or below them.

Columns and labels:
14-3-3γ [1] = target: 14-3-3γ (UniProt P61981); test: SPR
14-3-3γ [2] = target: 14-3-3γ (UniProt P61981); test: negative-stain electron microscopy
14-3-3γ [3] = target: 14-3-3γ (UniProt P61981); test: native MS
14-3-3γ [4] = target: 14-3-3γ (UniProt P61981); test: native MS; remark: listed apart in the source
14-3-3γ [5] = target: 14-3-3γ (UniProt P61981); test: native MS; remark: listed apart in the source
14-3-3γ [6] = target: 14-3-3γ (UniProt P61981); test: negative-stain electron microscopy; remark: listed apart in the source
GST-14-3-3γ [7] = target: GST-14-3-3γ (UniProt P61981); test: SPR
GST-14-3-3γ [8] = target: GST-14-3-3γ (UniProt P61981); test: SPR; remark: listed apart in the source
GST-14-3-3γ [9] = target: GST-14-3-3γ (UniProt P61981); test: SPR; remark: listed apart in the source
native MS = target: the molecule itself; test: native MS

dissociation rate constant of the smaller, rapidly dissociating population (14-3-3γ [1]): 0.018 s⁻¹ | kon (14-3-3γ [1]): 144000 M⁻¹ s⁻¹ | stoichiometry N (14-3-3γ dimers per TH tetramer) (14-3-3γ [2]): 1 | stoichiometry N (14-3-3γ dimers per TH tetramer) (14-3-3γ [3]): 2 | stoichiometry N (14-3-3γ dimers per TH tetramer) (14-3-3γ [4]): 2 | stoichiometry N (14-3-3γ dimers per TH tetramer) (14-3-3γ [5]): 1 | stoichiometry N (14-3-3γ dimers per TH tetramer) (14-3-3γ [6]): 2
Molecule: human tyrosine hydroxylase isoform 1 phosphorylated on Ser19 (TH-pS19), full stoichiometry (from UniProt P07101-3 1-497) (enzyme)

Kd (14-3-3γ [1]): 2.1 nM | dissociation rate constant of the smaller, rapidly dissociating population (14-3-3γ [1]): 0.018 s⁻¹ | koff (14-3-3γ [1]): 0.00036 s⁻¹ | kon (14-3-3γ [1]): 159000 M⁻¹ s⁻¹ | stoichiometry N (14-3-3γ dimers per TH tetramer) (14-3-3γ [4]): 2
Molecule: human tyrosine hydroxylase isoform 1 phosphorylated on both Ser19 and Ser40 (TH-pS19pS40) (from UniProt P07101-3 1-497) (enzyme)

Second part, the molecule before the results:

Molecule: human tyrosine hydroxylase isoform 1 phosphorylated on Ser19 to low stoichiometry (TH-pS19L) (from UniProt P07101-3 1-497) (enzyme)
Kd (14-3-3γ [1]): 0.57 nM | dissociation rate constant of the smaller, rapidly dissociating population (14-3-3γ [1]): 0.019 s⁻¹ | koff (14-3-3γ [1]): 0.00045 to 0.00051 s⁻¹ | kon (14-3-3γ [1]): 780000 M⁻¹ s⁻¹ | koff (GST-14-3-3γ [7]): 0.00063 to 0.00069 s⁻¹ | kon (GST-14-3-3γ [7]): 2.4e+06 M⁻¹ s⁻¹ | kon (GST-14-3-3γ [8]): 1.8e+06 M⁻¹ s⁻¹ | kon (GST-14-3-3γ [9]): 1.2e+06 M⁻¹ s⁻¹ | stoichiometry N (14-3-3γ dimers per TH tetramer) (14-3-3γ [4]): 1 and 2

B1: 14-3-3γ (natural protein)
chain: VDREQLVQKARLAEQAERYDDMAAAMKNVTELNEPLSNEERNLLSVAYKNVVGARRSSWRVISSIEQKTSADGNEKKIEMVRAYREKIEKELEAVCQDVLSLLDNYLIKNCSETQYESKVFYLKMKGDYYRYLAEVATGEKRATVVESSEKAYSEAHEISKEHMQPTHPIRLGLALNYSVFYYEIQNAPEQACHLAKTAFDDAIAELDTLNEDSYKDSTLIMQLLRDNLTLWTSDQQDDDGGEGNN
stoichiometry N (native MS): 2
